In the DeepSol protein solubility set:

Test: soluble on expression in E. coli; label from the status in PepcDB or PDB records

Sequence	soluble on expression in E. coli
MMSGAVEPVSVIFPQSTSSGVEVLYQQFSFGRYFNQIAAGVITGLIQAHQHSGHGPLRILEVGGGTGGTTAWLLPELRNVADVRYCFTDISALFSRRAEDKFSEYDFVEYAQFDLQKPASEQGFQAGHYDLIVAANVIHATQHVGQTLHNLRPLLKPGGALLMREITRPMRLFDFVFGPLVLPLHDEQARGGELFLSTAHWQQQCLESGFERLDWLP	not soluble
MLHTTQLYQHVPETRWPIVYSPRYNITFMGLEKLHPFDAGKWGKVINFLKEEKLLSDSMLVEAREASEEDLLVVHTRRYLNELKWSFAVATITEIPPVIFLPNFLVQRKVLRPLRTQTGGTIMAGKLAVERGWAINVGGGFHHCSSDRGGGFCAYADITLAIKFLFERVEGISRATIIDLDAHQGNGHERDFMDDKRVYIMDVYNRHIYPGDRFAKQAIRRKVELEWGTEDDEYLDKVERNIKKSLQEHLPDVVVYNAGTDILEGDRLGGLSISPAGIVKRDELVFRMVRGRRVPILMVTSGGYQKRTARIIADSILNLFGLGLIGPESPSVSAQNSDTPLLPPAVP	soluble
SKIYDNKNQLIADLGSERRVNAQANDIPTDLVKAIVSIEDHRFFDHRGIDTIRILGAFLRNLQSNSLQGGSTLTQQLIKLTYFSTSTSDQTISRKAQEAWLAIQLEQKATKQEILTYYINKVYMSNGNYGMQTAAQNYYGKDLNNLSLPQLALLAGMPQAPNQYDPYSHP	not soluble
SLIKEQASKLIKEIVNQISSLASISNFVLLFPRLDFKGLGYIPQLFFIFVKHDLIEENLSSVSSARAVIDFTNTKSEYVNFNITPRPEIVTINKGILSSIYDQTLIRALRETPFMNSALEFNSNFIKMQFRQRFNLGVYYSMYSPSVGFHEVVSISSLKLKDTVYLEEVEISLQVKICKTFNILTYKG	soluble
MKKILFICLGNICRSPMAEFIMKDLVKKANLEKEFFINSAGTSGEHDGEGMHYGTKNKLAQLNIEHKNFTSKKLTQKLCDESDFLITMDNSNFKNVLKNFTNTQNKVLKITDFSPSLNYDEVPDPWYSGNFDETYKILSLACKNLLVFLSKHHHHH	soluble
SETQEGVSKQSIRERIWDYMESHDIADFPRPVHHRIPNFKGAAQAAGHLPHLQAFHVARTIKVNPDAPQRNARFLVLESKKTLLVPTPRLRTGLFNKITPPPGATKDILRKCATSQGVRNFSVPVGLDSSVLVDLVVVGSVAVSEKGKLETGCLDVPEGYPGHSPLACVHAESLTSAPVPLTLQAFCCSVSPHGRLSVIGMGGIESLSHLNQHSVERPLPGLCGGPLMVVVIPH	not soluble
SNAEERLKMSTTTSTQDSGLLKVLLPPFEKKNNVKVDVIAVGTGQALKLGEAGDVDVVFVHARKLEDKFVADGFGVNRKDVMYNDFVIVGPKNDPAGIAKAKTAAEALKLLATKGATFISRGDKSGTHTKELDLWKSAGVDPKGNWYVEAGQGMGPVITMATERRAYTLTDRGTYNAFKGAKTDLVILFQGEKGLFNPYGIMAVNPKKFPHVKYDLAMKLIDYVTGPEGLKIISDY	soluble
MGSDKIHHHHHHMKENIEKLFQAIAQKNPIHSKYLKKIEFSQEDEEEFDKLISYYIQDGISIKEQCDCYLLILNDTLEETKFFIENGAYRYSSFDEVKDKVYFNESYMKQYMIGLALSSFVWIAHIKVRKYFSQYLQNFTPKTTYFEIGPGHGEYFARAVKSGKFSAFYGLDISPTSCELTQKMVKQQVGGLITKCDFLCQDFFTYDFDKKADLIVIGEVLEHVEKPLEFLKRSKELLSDGGEIFATIPINAPAIDHIYLFSHPDEVKDLIEKSGLKFKAYECFMANDYSLEKALKFKNAITMAVVLNA	not soluble
QADMPLERIIEAEKRVECNDPLVALVVNENNTTVNNICQATHKQLFQLVQWAKLVPHFTSLPLTDQVQLLRAGWNELLIAAFSHRSMQAQDAIVLATGLTVNKSTAHAVGVGNIYDRVPSELVNKMKEMKMDKTELGCLRAIILYNPDVRGIKSVQEVEMLREKIYGVLEEYTRTTHPNEPGRFAKLLLRLPALRSIGLKCLEHLFFFKLIGDVPIDTFLMEMLEGTTDS	soluble
MAGWVAKRFWKEASVAEEPGGFAVLLDGRGVRTPAKRPLILPTCALAEAVASEWQAQEGEVRPETMPVTRSANSALDKVAPQFDEVTEMLAAYGGTDLLCYRATAPEALVARQARAWDPVLAWAAERFEAPLETTAGVMHQAQPEASLTRLAEHVRSFSPFQVAGFHDLVAISGSLILGLGVTEGHLLPEEAWELSRVDESWQIEQWGADEEAAEIEAFRRTAFLQAARFYALCGKLAAALEHHHHHH	not soluble
MSLKNLPIGGVWKGKVKLHSNSPAQDYFANITLNTLDPNHIDVFFPEFAHATPRVQLDLHPTGSVNGSNYAQDLTMLDMCLYDGFNGNAISYEIMLKDEGRPAAGRRDGYFSIYRQGGTTTDEGERIDYRVKMYNPETGGQIDVRNNENMVWNSINLKRVRPVVLPGIRYAVMCVPTPLTLAVDKFSVMDKQAGYYMGKLSVIFTPSLPTINEGHHHHHH	soluble
MAEQRSNIMRLPPSGYRLHRFPPLAQPVAVDEEFGLDNQGWQESQVDIQQQLEAGFQQGLQQGHEEGLRQGIEQGKQQGLLDGQKEGFQKGFVSGEQAGKQGFLEAAKPVNDLFQALSRWQSEKEQQQRHMICELVQKVAQQVIRAELTLMPQQILALVDETLSAMPGKAETVTVHLNPQDLERITHINADLPKSWKLVANNELPIGGCQLVTDDAEADASCDSRLEACMDNVKQHLLDEVSIPQVESENELEHHHHHH	soluble
MPPSLRKAVAAAIGGGAIAIASVLITGPSGNDGLEGVSYIPYKDIVGVWTVCHGHTGKDIMLGKTYTKAECKALLNKDLATVARQINPYIKVDIPETTRGALYSFVYNVGAGNFRTSTLLRKINQGDIKGACDQLRRWTYAGGKQWKGLMTRREIEREVCLWGQQ	not soluble
GSKFLNKRLSEREFDPDIHCGVIDLDTKKPCTRSLTCKTHSLTQRRAVQGRRKRFDVLLAEHKNKTREKELIRH	soluble
GAASPGPSRPGLVPVSIIGAEDEDFENELETNSEEQNSQFQSLEQVKRRPAHLMALLQHVALQFEPGPLLCCLHADMLGSLGPKEAKKAFLDFYHSFLEKTAVLRVPVPPNVAFELDRTRADLISEDVQRRFVQEVVQSQQVAVGRQLEDFRSKRLMGMTPWEQELAQLEAWVGRDRASYEARERHVAERLLMHLEEMQHTISTDEEKSAAVVNAIGLYMRHLGVRTKSGDKK	soluble
MANSAGSMTIFVISDSAGETASKLAAASMAQYPTVDFTLIRRTFVKDEDKLVQALEDAKKAEAMVLHTIINDHLVAIANQFFNEHQLFHFDILTPPVAEIERLTGVAPMREPGALHHLNENYFKRIEAMEFAVKYDDGKDPRGFLEADVLLLGVSRTSKTPLSLFLANKNLKVANLPLIPEAHLPKQLFEMDPKKIVGLTNDPNVLNGIRKERMRAYGLPENTSYSDIEKIRRELAFANDLYQKLGCIVIDVASLSIEETASMILNALNLEDHSYYSTETSEDLEHHHHHH	not soluble
MGSDKIHHHHHHMPIHLIWGNDYEACNREIEELINSVIDSSWKSFNYSQLDGNDPKQNLRALEEAQSAPLGSGGRIVLVRRSPFCNGCSIELGNKLEQVIKLIPDKTHLILSNANKPDKRLKTTKLIEKSIQSNTLSQEKSFILPLPWDINGQRNLVKNNLERLNLKMNYETIDLIVESIGNDSSLINTELQKLSLFSEAVNTNLTTDKPREISKELVKKLIQNNSTNALEIANSLLKGEKIIALNKIQSLLKNGEPALRLITTLTGQSRGWLWVHLLDSQGNQDVKEIAKLAGIANPKRIFVIRKQIQGKSLGTLLELMKKLLKIEASIKSGIKPIDSFKDNLLTDSKILANN	not soluble
MGLFTTRQLLGYTEQKVKFRALFLELFFRRTVNFHTEEVMLDKITGKTPVAAYVSPVVEGKVLRHRGGETRVLRPGYVKPKHEFNYQQAVERLPGEDPAQLNGPAYRRLRIITDNLKQEEHAIVQVEEMQAVNAVLYGKYTMEGEQFETVEVDFGRSVGNNITQAGGTEWSAQDRDTFDPTHDLDAYCDFASGTINIAIMDGKVWRLLNGFKLFREKLDTRRGSNSQLETAVKDLGAVVSFKGYYGDLAIVVAKTSYVAEDGTEKRYLPDGTLVLGNTAAEGIRCYGAIQDAQALSEGVVASSRYPKHWLTVGDPAREFTMTQSAPLMVLPDPDEFVVVQVK	not soluble
MTKLFLPNTQATQQLGITLGKNLTAGSVILLEGDLGAGKTTLVQGIGKGLGINESIVSPTFTLINEYIEGRIPLYHLDLYRLKPQEVTGLNLESYWEGIEVTPGIVAIEWAERMPYLPDSYFRVCLKSGEDGDRQLEITAVNCQMIDNLISS	not soluble
MKTLHSLSEQLGGLLANQQQILASAESCTGGGVAYWVTEVAGSSAWFDRSFVTYSNEAKQEMLGVRQATLQQFGAVSEQTVEEMALGALLHSKATLAAAISGIAGPGGGSAEKPVGTVCFGFASVQGWLKVETCHFTGDREQVRQQAIAHVLQSLIEHLAADQVQNVN	not soluble
MWFFNKNLKVLAPCDGTIITLDEVEDEVFKERMLGDGFAINPKSNDFHAPVSGKLVTAFPTKHAFGIQTKSGVEILLHIGLDTVSLDGNGFESFVTQDQEVNAGDKLVTVDLKSVAKKVPSIKSPIIFTNNGGKTLEIVKMGEVKQGDVVAILK	soluble
MGSDKIHHHHHHMQSTASHTKAPGKSHPVVTEDQYFSVSPLMLLADNAALFSVYLRQGNNFVLYTHAGEMFTHRHKQRLAENGVTEVWLKESQRHAYTAHVEQHLGNVLADDSLPAEARAGALYGIASDALQDVFAQHGAGALPADTARRARQLVEHIISFLKVPNGITALGRFIAHDYHSWTHSLNTTFYTLGILQSYGLPDESMAHIGLGAMLHDIGKAEIPSSILLKPGPLTASERQCINTHPLMGVARLAQTELPQTTLNCILFHHEKLDGSGYPSGIGGTAIPLAVRAVTVADIYDALASERPYAAARPPFAVLQLMRGEMADELDMDVFKNFVLMLSNAGLTKT	not soluble
MGSDKIHHHHHHMMGGKTLVLLDERLISLSMTDNRGFDADQVTLSVDDADGLLQLPPRGADLSVSIGWKGEALVYKGVFIVDEVAHSGPPDTLEVTARSADFRDEFNVKREISWHDLTVERVVSAIAHRYKLKPVISAQLMDLEIDHADQTQESDMSFLTRMAEMLGAIATVKNGCLLFILPGGGVSASGKPLPAAEITRSSGDRHSFRIADRDAYTGVRAYWLDLNFGKKKKVSVKRRKAKPKKEKSSSREGDYMEGEDGNVYVLRKTYQNETAAKRAAAAKWQQLQRGAAQFSITLARGRADLYPEVHVSVSGFKADIDNQEWIISRVEHVIDGSGFTSRLELEAKIADWIAESD	not soluble
MGCYHPLSGTDGTLMRHTLPIAPQFYVTAPQPCPYLAGRMERKLFTALQGEGAERLNNALSQQGFRRSQNVLYRPSCADCAACLSARIDVSAFRASRSQKRAMRRNAHLTRRATSPWATDEQYELFRRYLDSRHADGGMADMDVFEFAAMIEETPIRSRVIEYAHRDTRALIGVSLTDVLDDGLSMVYSFYDPDLHRDSLGTHMILDHIAIAREAGLPYVYLGYWVPGSPKMGYKSRFSGLEIYLGGRWQAMTDPEAHDAIRHPLSTDPIAEQVANIQLPDRWPTGDLEHHHHHH	not soluble
